{
  "source": "paper PMC12866851",
  "about": "“ACSL5 Regulates Glucose Metabolism and Chemotherapy Sensitivity in Colorectal Cancer Cells under Glutamine Deficiency” (Advanced Science, 2025)",
  "proteins": {"B1": {"name": "isocitrate dehydrogenase 2 (IDH2) (enzyme, human (endogenous in HCT116), UniProt P48735 40-452, looked up)", "chain": "ADKRIKVAKPVVEMDGDEMTRIIWQFIKEKLILPHVDIQLKYFDLGLPNRDQTDDQVTIDSALATQKYSVAVKCATITPDEARVEEFKLKKMWKSPNGTIRNILGGTVFREPIICKNIPRLVPGWTKPITIGRHAHGDQYKATDFVADRAGTFKMVFTPKDGSGVKEWEVYNFPAGGVGMGMYNTDESISGFAHSCFQYAIQKKWPLYMSTKNTILKAYDGRFKDIFQEIFDKHYKTDFDKNKIWYEHRLIDDMVAQVLKSSGGFVWACKNYDGDVQSDILAQGFGSLGLMTSVLVCPDGKTIEAEAAHGTVTRHYREHQKGRPTSTNPIASIFAWTRGLEHRGKLDGNQDLIRFAQMLEKVCVETVESGAMTKDLAGCIHGLSNVKLNEHFLNTTDFLDTIKSNLDRALGRQ", "notes": "IDH2, mitochondrial isocitrate dehydrogenase 2, endogenous in human HCT116 cells; source: endogenous, HCT116 lysate"}},
  "molecular_target": "the molecule itself",
  "assay": "cross-linking; HCT116 cells (shctrl or shACSL5) treated without or with DSS crosslinker; whole cell lysates, Western blot against IDH2; dimer and monomer of IDH2",
  "data": [
    {"protein": "B1", "values": [
      {"measurement": "stoichiometry N", "value": 2}
    ]}
  ]
}
